Data from IntAct's records for PubMed 24704786.

B1: Interferon alpha/beta receptor 1 (Homo sapiens), P17181-1 (parent)
chain: MMVVLLGATTLVLVAVAPWVLSAAAGGKNLKSPQKVEVDIIDDNFILRWNRSDESVGNVTFSFDYQKTGMDNWIKLSGCQNITSTKCNFSSLKLNVYEEIKLRIRAEKENTSSWYEVDSFTPFRKAQIGPPEVHLEAEDKAIVIHISPGTKDSVMWALDGLSFTYSLVIWKNSSGVEERIENIYSRHKIYKLSPETTYCLKVKAALLTSWKIGVYSPVHCIKTTVENELPPPENIEVSVQNQNYVLKWDYTYANMTFQVQWLHAFLKRNPGNHLYKWKQIPDCENVKTTQCVFPQNVFQKGIYLLRVQASDGNNTSFWSEEIKFDTEIQAFLLPPVFNIRSLSDSFHIYIGAPKQSGNTPVIQDYPLIYEIIFWENTSNAERKIIEKKTDVTVPNLKPLTVYCVKARAHTMDEKLNKSSVFSDAVCEKTKPGNTSKIWLIVGICIALFALPFVIYAAKVFLRCINYVFFPSLKPSSSIDEYFSEQPLKNLLLSTSEEQIEKCFIIENISTIATVEETNQTDEDHKKYSSQTSQDSGNYSNEDESESKTSEELQQDFV

Variants of: B1
Conditions: with tyk2_human TYK2, P29597
Chain of tyk2_human TYK2, P29597 (P29597 whole entry): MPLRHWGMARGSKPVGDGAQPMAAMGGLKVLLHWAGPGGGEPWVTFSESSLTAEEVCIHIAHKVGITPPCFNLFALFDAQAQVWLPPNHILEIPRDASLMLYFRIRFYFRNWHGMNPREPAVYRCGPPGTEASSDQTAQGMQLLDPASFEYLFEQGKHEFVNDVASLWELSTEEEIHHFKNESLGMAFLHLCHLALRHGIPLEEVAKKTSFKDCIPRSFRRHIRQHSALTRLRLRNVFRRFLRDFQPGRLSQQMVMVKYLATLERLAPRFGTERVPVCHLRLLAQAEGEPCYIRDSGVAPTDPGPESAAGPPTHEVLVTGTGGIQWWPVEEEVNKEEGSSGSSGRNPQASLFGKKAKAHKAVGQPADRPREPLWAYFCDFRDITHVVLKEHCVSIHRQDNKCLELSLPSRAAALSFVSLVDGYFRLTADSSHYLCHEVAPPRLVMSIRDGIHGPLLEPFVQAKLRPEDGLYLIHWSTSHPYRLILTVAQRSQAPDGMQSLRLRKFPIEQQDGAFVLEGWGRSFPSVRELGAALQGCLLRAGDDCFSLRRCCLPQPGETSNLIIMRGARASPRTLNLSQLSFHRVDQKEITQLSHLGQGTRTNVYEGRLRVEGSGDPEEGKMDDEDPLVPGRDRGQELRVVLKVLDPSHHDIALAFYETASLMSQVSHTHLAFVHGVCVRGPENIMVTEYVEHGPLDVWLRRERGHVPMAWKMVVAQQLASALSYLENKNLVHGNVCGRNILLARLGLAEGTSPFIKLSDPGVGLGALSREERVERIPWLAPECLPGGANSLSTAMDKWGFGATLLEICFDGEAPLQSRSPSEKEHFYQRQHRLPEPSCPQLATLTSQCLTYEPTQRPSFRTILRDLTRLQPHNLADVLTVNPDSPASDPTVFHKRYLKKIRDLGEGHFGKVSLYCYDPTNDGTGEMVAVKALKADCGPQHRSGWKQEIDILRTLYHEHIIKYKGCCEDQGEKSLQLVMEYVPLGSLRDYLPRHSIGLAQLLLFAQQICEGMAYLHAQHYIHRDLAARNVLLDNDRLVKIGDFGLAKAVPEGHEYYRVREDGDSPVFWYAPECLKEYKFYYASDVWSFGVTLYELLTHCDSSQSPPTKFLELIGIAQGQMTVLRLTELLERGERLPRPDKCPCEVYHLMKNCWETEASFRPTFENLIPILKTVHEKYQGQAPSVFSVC

Q: MMVVLLGATTLVLVAVAPWVLSAAAGGKNLKSPQKVEVDIIDDNFILRWNRSDESVGNVTFSFDYQKTGMDNWIKLSGCQNITSTKCNFSSLKLNVYEEIKLRIRAEKENTSSWYEVDSFTPFRKAQIGPPEVHLEAEDKAIVIHISPGTKDSVMWALDGLSFTYSLVIWKNSSGVEERIENIYSRHKIYKLSPETTYCLKVKAALLTSWKIGVYSPVHCIKTTVENELPPPENIEVSVQNQNYVLKWDYTYANMTFQVQWLHAFLKRNPGNHLYKWKQIPDCENVKTTQCVFPQNVFQKGIYLLRVQASDGNNTSFWSEEIKFDTEIQAFLLPPVFNIRSLSDSFHIYIGAPKQSGNTPVIQDYPLIYEIIFWENTSNAERKIIEKKTDVTVPNLKPLTVYCVKARAHTMDEKLNKSSVFSDAVCEKTKPGNTSKIWLIVGICIALFALPFVIYAAKVFLRCINYVFFPSLKPSSSIDEYFSEQPLKNLLLSTSEAQIEKCFIIENISTIATVEETNQTDEDHKKYSSQTSQDSGNYSNEDESESKTSEELQQDFV [E497A] was tested. Which “effect of a mutation on the interaction” value did it give?
A: disrupting interaction strength
